Assay results published in patent publication CN116554322A (HEJING MEDICAL TECH SHANGHAI CO LTD, dated 2023).
Numbering of substitutions follows the chain as printed. Names may count otherwise.

T1: IL-18Rβ on KG-1 cells and human PBMC (human, UniProt O95256 20-599)
T1 sequence (looked up): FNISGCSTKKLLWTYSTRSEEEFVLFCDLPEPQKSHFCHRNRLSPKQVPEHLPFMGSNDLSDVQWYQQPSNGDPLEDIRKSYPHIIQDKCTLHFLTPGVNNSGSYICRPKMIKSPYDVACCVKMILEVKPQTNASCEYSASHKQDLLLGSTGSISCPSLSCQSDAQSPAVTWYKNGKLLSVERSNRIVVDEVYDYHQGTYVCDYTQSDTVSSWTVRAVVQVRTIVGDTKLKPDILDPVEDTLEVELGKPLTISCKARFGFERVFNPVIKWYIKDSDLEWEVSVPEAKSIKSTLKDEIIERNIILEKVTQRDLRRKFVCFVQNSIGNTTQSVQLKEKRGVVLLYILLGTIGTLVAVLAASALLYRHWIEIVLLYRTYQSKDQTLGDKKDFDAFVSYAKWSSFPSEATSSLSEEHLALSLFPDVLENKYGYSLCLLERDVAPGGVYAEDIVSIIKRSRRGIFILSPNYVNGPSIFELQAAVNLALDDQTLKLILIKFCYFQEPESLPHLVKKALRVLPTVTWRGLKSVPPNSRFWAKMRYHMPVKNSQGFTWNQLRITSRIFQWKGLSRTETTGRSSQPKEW

T2: 人IL-18Rβ蛋白 (IL-18Rβ antigen) (human)
T2 chain: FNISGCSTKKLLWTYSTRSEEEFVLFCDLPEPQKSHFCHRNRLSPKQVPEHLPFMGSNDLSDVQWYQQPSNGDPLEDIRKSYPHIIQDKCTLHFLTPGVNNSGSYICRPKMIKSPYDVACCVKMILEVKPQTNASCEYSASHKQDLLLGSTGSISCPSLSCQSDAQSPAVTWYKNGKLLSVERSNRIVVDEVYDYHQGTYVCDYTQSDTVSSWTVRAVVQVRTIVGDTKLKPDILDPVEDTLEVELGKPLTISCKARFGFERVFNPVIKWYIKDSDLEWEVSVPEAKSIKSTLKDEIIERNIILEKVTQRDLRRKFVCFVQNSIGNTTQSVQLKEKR

T3: 人IL-18Rβ蛋白 (IL-18Rβ antigen) (human)
T3 sequence (O95256 whole entry, species assumed, looked up): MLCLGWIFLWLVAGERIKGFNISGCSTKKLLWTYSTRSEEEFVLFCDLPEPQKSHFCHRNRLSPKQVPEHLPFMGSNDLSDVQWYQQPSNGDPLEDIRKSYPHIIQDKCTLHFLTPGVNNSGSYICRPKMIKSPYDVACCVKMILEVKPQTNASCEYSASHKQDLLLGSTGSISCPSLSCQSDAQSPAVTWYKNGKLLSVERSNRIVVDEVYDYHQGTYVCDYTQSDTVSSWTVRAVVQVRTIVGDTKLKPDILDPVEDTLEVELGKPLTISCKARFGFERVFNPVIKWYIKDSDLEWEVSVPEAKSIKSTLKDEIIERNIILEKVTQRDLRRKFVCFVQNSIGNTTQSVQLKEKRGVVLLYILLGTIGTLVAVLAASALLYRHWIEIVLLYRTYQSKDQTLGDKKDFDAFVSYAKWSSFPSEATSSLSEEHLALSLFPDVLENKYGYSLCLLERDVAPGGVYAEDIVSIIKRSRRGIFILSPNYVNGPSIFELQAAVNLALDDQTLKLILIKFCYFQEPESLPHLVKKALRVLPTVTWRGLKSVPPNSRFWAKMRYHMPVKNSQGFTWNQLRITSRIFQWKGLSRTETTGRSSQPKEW

B1: A035 full-length IgG (antibody, V domains shown)
VH: EVQLVESGGGLVQPGGSLRLSCAASGINLYYSSMHWVRQAPGKGLEWVASIYSSNGRTYYADSVKGRFTISADTSKNTAYLQMNSLRAEDTAVYYCARASFSHGYGWYGLDYWGQGTLVTVSS
VL: DIQMTQSPSSLSASVGDRVTITCRASQSVSFAVEWYQQKPGKAPKLLIYSASSLYSGVPSRFSGSRSGTDFTLTISSLQPEDFATYYCQQYGYHDAGLITFGQGTKVEIK
B2: A039 full-length IgG (antibody, V domains shown)
VH: B1 VH with A99S
VL: B1 VL with F31S, E34D
B3: C056-WT full-length antibody (parental antibody WT) (antibody, V domains shown)
VH: B1 VH with I27F, A99S
VL: B1 VL with F31S, E34A
B4: A037 full-length IgG (antibody, V domains shown)
VH: B1 VH with I27L, A99S
VL: B1 VL with E34D
B5: A037 Fab clone (Fab, V domains shown)
VH: B1 VH with I27L, A99S
VL: B1 VL with E34D
notes: Mutations against C056-WT: VL-S31F/VL-A34D/VH-F27L
B6: A036 Fab clone (Fab, V domains shown)
VH: B1 VH
VL: B1 VL with F31S, E34D
B7: A039 Fab clone (Fab, V domains shown)
VH: B1 VH with A99S
VL: B1 VL with F31S, E34D
notes: Mutations against C056-WT: VL-A34D/VH-F27I
B8: A038 Fab clone (Fab, V domains shown)
VH: B1 VH with A99S
VL: B1 VL with F31S
notes: Mutations against C056-WT: VL-A34E/VH-F27I
B9: A040 Fab clone (Fab, V domains shown)
VH: B1 VH with I27L, A99S
VL: B1 VL with F31S
B10: A035 Fab clone (Fab, V domains shown)
VH: B1 VH
VL: B1 VL
notes: Mutations against C056-WT: VL-S31F/VL-A34E/VH-F27I/VH-S99A
B11: A041 Fab clone (Fab, V domains shown)
VH: B1 VH with I27V
VL: B1 VL with E34D
B12: A042 Fab clone (Fab, V domains shown)
VH: B1 VH with I27L
VL: B1 VL with F31S
B13: C056-WT Fab (wild-type anti-IL-18Rβ antibody) (Fab, V domains shown)
VH: B1 VH with I27F, A99S
VL: B1 VL with F31S, E34A

biological target: T1, IL-18Rβ on KG-1 cells and human PBMC; assay: cell-based or functional assay

Q: With B1 as the binder, how does the “IC50(nM), inhibition of IL-18-stimulated IFN-γ release in KG-1 cells” value (“IC50(nM), inhibition” below) read?
A: Its value is 0.26 nM.

Q: What about the “potency relative to WT antibody, KG-1 IFN-γ assay” value (shortened to “potency relative to WT antibody”) of the same binder?
A: The value was roughly 20 fold.

Q: For B2, which “IC50(nM), inhibition” value is on record?
A: The value was 0.59 nM.

Q: What about the “potency relative to WT antibody” value of the same binder?
A: The value was roughly 20 fold.

Q: B3 was tested. Which “IC50(nM), inhibition” value did it give?
A: Its value is 8.14 nM.

Q: Which “IC50(nM), inhibition” value does the source give for B4 here?
A: Its value is 0.27 nM.

Q: What about the “potency relative to WT antibody” value of the same binder?
A: Its value is roughly 20 fold.

Biological target: T2, 人IL-18Rβ蛋白 (IL-18Rβ antigen)
Assay: SPR (Biacore 8K), secreted Fab captured on SASA sensor, antigen injected, 1:1 fit

Q: B5 was tested. Which Kd did it give?
A: Its Kd is 0.00847 nM.

Q: And the koff?
A: Its koff is 1e-06 s⁻¹.

Q: And the kon?
A: Its kon is 118000 M⁻¹ s⁻¹.

Q: For B6, which Kd is on record?
A: Its Kd is 0.648 nM.

Q: What about the koff of the same binder?
A: Its koff is 6.91e-05 s⁻¹.

Q: And the kon?
A: Its kon is 107000 M⁻¹ s⁻¹.

Q: For B7, which Kd is on record?
A: Its Kd is 0.26 nM.

Q: And the koff?
A: The koff was 3e-05 s⁻¹.

Q: What about the kon of the same binder?
A: The kon was 115000 M⁻¹ s⁻¹.

Q: How did the Kd turn out when B8 was run?
A: The Kd was 0.725 nM.

Q: And the koff?
A: The koff was 5.67e-05 s⁻¹.

Q: And the kon?
A: The kon was 78200 M⁻¹ s⁻¹.

Q: Which results are given for B9?
A: Kd: 1.04 nM; koff: 8e-05 s⁻¹; kon: 77000 M⁻¹ s⁻¹

Q: What does the source list for B10?
A: Kd: 0.224 nM; koff: 3.19e-05 s⁻¹; kon: 143000 M⁻¹ s⁻¹

Q: What does the source list for B11?
A: Kd: 0.415 nM; koff: 6.35e-05 s⁻¹; kon: 153000 M⁻¹ s⁻¹

Q: With B12 as the binder, how does the Kd read?
A: Its Kd is 1.34 nM.

Q: And the koff?
A: Its koff is 0.000106 s⁻¹.

Q: What about the kon of the same binder?
A: The kon was 79000 M⁻¹ s⁻¹.

biological target: T3, 人IL-18Rβ蛋白 (IL-18Rβ antigen) (human); assay: SPR (Biacore 8K), antibody captured on protein A chip, human IL-18Rβ 6.25-400 nM injected, 25°C

Q: For B3, which Kd is on record?
A: The Kd was 15.8 nM.

biological target: T3, 人IL-18Rβ蛋白 (IL-18Rβ antigen) (human); assay: SPR (Biacore 8K), Fab captured; ratio of kd, the reference itself

Q: Which 比值(kd) does the source give for B13 here?
A: Its 比值(kd) is 1.

biological target: T3, 人IL-18Rβ蛋白 (IL-18Rβ antigen) (human); assay: SPR (Biacore 8K), secreted Fab captured on SASA sensor, antigen injected, 1:1 fit

Q: Which results are given for B13?
A: Kd: 17.8 nM; koff: 0.00119 s⁻¹; kon: 66600 M⁻¹ s⁻¹

Biological target: T2, 人IL-18Rβ蛋白 (IL-18Rβ antigen)
Assay: SPR (Biacore 8K), Fab captured; ratio of kd of C056-WT to kd of the clone

Q: With B5 as the binder, how does the “比值(kd)” value read?
A: The value was 1190.

Q: Which “比值(kd)” value does the source give for B6 here?
A: Its value is 17.2.

Q: How did the “比值(kd)” value turn out when B7 was run?
A: The value was 39.7.

Q: How did the “比值(kd)” value turn out when B8 was run?
A: The value was 21.

Q: B9 was tested. Which “比值(kd)” value did it give?
A: Its value is 14.9.

Q: For B10, which “比值(kd)” value is on record?
A: The value was 37.3.

Q: How did the “比值(kd)” value turn out when B11 was run?
A: Its value is 18.7.

Q: How did the “比值(kd)” value turn out when B12 was run?
A: The value was 11.2.
